Source: publication PMC9616523 (2022)

How the values were obtained:
[1] = target: Avaren‐Fc expressed in glycoengineered ΔXylT/ΔFucT N. benthamiana (AvFc^ΔXF) ( | human); assay: SPR
[2] = target: Avaren‐Fc expressed in wild‐type N. benthamiana (AvFc^WT) ( | human); assay: SPR

Binder | Kd [1] | Kd [2]
mouse FcγRIV (receptor) GLQKAVVNLDPKWVRVLEEDSVTLRCQGTFSPEDNSIKWFHNESLIPHQDANYVIQSARVKDSGMYRCQTALSTISDPVQLEVHMGWLLLQTTKWLFQEGDPIHLRCHSWQNRPVRKVTYLQNGKGKKYFHENSELLIPKATHNDSGSYFCRGLIGHNNKSSASFRISLGDPGSPSMFPPWHQ | 457 nM | 2530 nM
human FcγRI (receptor) QVDTTKAVITLQPPWVSVFQEETVTLHCEVLHLPGSSSTQWFLNGTATQTSTPSYRITSASVNDSGEYRCQRGLSGRSDPIQLEIHRGWLLLQVSSRVFTEGEPLALRCHAWKDKLVYNVLYYRNGKAFKFFHWNSNLTILKTNISHNGTYHCSGMGKHRYTSAGISVTVKELFPAPVLNASVTSPLLEGNLVTLSCETKLLLQRPGLQLYFSFYMGSKTLRGRNTSSEYQILTARREDSGLYWCEAATEDGNVLKRSPELELQVLGLQLPTPVWFH | 4.04 nM | 7.78 nM
